Assays:
viral protein (Gag) = assay: Intracellular steady-state level of viral proteins in COS-1 cells (S1 and P1 fractions, Western blot, anti-CA); type: cell-based, HIV-1; details: for Gag Δp6 in S1 and P1 fractions: gagΔp6, same conditions; for viral protein in P1 fraction / viral protein in S1 fraction: wild-type gag, pol, rev, conditions of greatest inhibition
HIV-1 particles = assay: Release of HIV-1 virus-like particles from transfected COS-1 cells (Western blot of particles, anti-CA); type: cell-based; details: for amount of mature CA in released virus, of the control (0 μM pa) level: COS-1 cells with rev, pol and wild-type gag
Tsg101 = target: T1, Tsg101 (Homo sapiens, UniProt Q99816); details: N- or C-terminally deleted Pr55^Gag fused to GAL4 DNA-binding domain; FIG. 1A
T1 construct: expressed in transfected cells; host or cells: Saccharomyces cerevisiae Y153
Method: 2-hybrid assay. […] Vectors pGBT9 and pGAD424 encoding PR55^Gag or Tsg101 sequences as GAL4 activation and binding domain fusion proteins were transformed into Saccharomyces cerevisiae Y153 using procedures previously described (Bartel, P. L. & Fields, S., 1995, Methods Enzymol. 254,241-263). Briefly, interactions were detected using a selection for Trp and Leu prototrophy followed by quantitative assay for LacZ activation. […] Mapping of the interacting domain was performed using vectors encoding the DNA-binding or activation domain of the yeast GAL4 transcriptional activator protein fused to truncations, deletions or point mutations of the proteins. […] Expression of all GAL4 fusions was checked by analysis of yeast cell extracts by SDS-gel electrophoresis and Western blotting with an antibody directed against the GAL4 binding domain (Upstate Biochemical) and GAL4 transactivation domain (Santa Cruz).

[1] = increasing expression, pa 1 and 5 μM, wild-type gag

Molecule	Gag Δp6 in S1 and P1 fractions (viral protein (Gag))	viral protein in P1 fraction (viral protein (Gag))	viral protein in S1 fraction (viral protein (Gag))	Gag processing in released particles (HIV-1 particles; [1])	release of virus particles (HIV-1 particles; [1])	LacZ reporter gene activation signal (Tsg101)	amount of mature CA in released virus, of the control (0 μM pa) level (HIV-1 particles; 1 μM pa)	amount of mature CA in released virus, of the control (0 μM pa) level (HIV-1 particles; 5 μM pa)	release of immature particles containing GagΔp6 (HIV-1 particles; Tsg101 overexpression, pa 0, 1, 5 μM, gagΔp6)
SD5-59 (protein, left off: small tags and cut ends) MAVSESQLKKMVSKYKYRDLTVRETVNVITLYKDLKPVLDSYVFNDGSSRELMNLTGTIPVPYRGNTYNIPICLWLLDTYPYNPPICFVKPTSSMTIKTGKHVDANGKIYLPYLHEWKHPQSDLLGLIQVMIVVFGDEPPVFSRPISASYPPYQATGPPNTSYMPGMPGGISPYPSGYPPNPSGYPGCPYPPGGPYPATTSSQYPSQPPVTTVGPSRDGTISEDTIRASLISAVSDKLRWRMKEEMDRAQAELNALKRTEEDLKKGHQKLEEMVTRLDQEVAEVDKNIELLKKKDEELSSALEKMENQSENNDIDEVIIPTAPLYKQILNLYAEENAIEDTIFYLGEGGVIDLDVFLKHVRLLSRKQFQLRALMQKARKTAGLSDLY	accumulated at higher levels in both fractions	no protein was found	detectable levels of viral protein	accumulation of particle-associated uncleaved Gag precursor	permitted release of virus particles	–	–	–	–
p1-p6: p1-p6 region of HIV-1 Pr55Gag fused to GAL4 DNA-binding domain (protein) MKLLSSIEQACDICRLKKLKCSKEKPKCAKCLKNNWECRYSPKTKRSPLTRAHLTEVESRLERLEQLFLLIFPREDLDMILKMDSLQDIKALLTGLFVQDNVNKDAVTDRLASVETDMPLTLRQHRISATSSSEESSNKGQRQLTVSGKIWPSYKGRPGNFLQSRPEPTAPPFLQSRPEPTAPPEESFRSGVETTTPPQKQEPIDKELYPLTSLRSLFGNDPSSQ	–	–	–	–	–	retained	–	–	–
pIND-h-Tsg101-FLAG: FLAG-tagged wild-type human Tsg101 overexpressed from an ecdysone-inducible plasmid (protein, left off: small tags and cut ends, FLAG-tagged wild-type human Tsg101 overexpressed from an ecdysone-inducible plasmid) MAVSESQLKKMVSKYKYRDLTVRETVNVITLYKDLKPVLDSYVFNDGSSRELMNLTGTIPVPYRGNTYNIPICLWLLDTYPYNPPICFVKPTSSMTIKTGKHVDANGKIYLPYLHEWKHPQSDLLGLIQVMIVVFGDEPPVFSRPISASYPPYQATGPPNTSYMPGMPGGISPYPSGYPPNPSGYPGCPYPPGGPYPATTSSQYPSQPPVTTVGPSRDGTISEDTIRASLISAVSDKLRWRMKEEMDRAQAELNALKRTEEDLKKGHQKLEEMVTRLDQEVAEVDKNIELLKKKDEELSSALEKMENQSENNDIDEVIIPTAPLYKQILNLYAEENAIEDTIFYLGEALRRGVIDLDVFLKHVRLLSRKQFQLRALMQKARKTAGLSDLY	detected in both S1 and P1 fractions	no detectable viral protein	no detectable viral protein	–	–	–	~60%	~30%	not significantly affected

— patent publication US7494767B2, “Assay for TSG101 as inhibitors of HIV production” (priority 2001, dated 2009)
